Experimental data reported in patent US20250313631A1 (HUMMINGBIRD BIOSCIENCE PTE, published 2025).

Target: T1, mouse VISTA expressed on cells (mouse, UniProt Q9D659 33-308)
T1 construct: whole, on cells; also called murine VISTA on transfected cells; VISTA on mouse CD11b+ myeloid cells
T1 sequence (looked up): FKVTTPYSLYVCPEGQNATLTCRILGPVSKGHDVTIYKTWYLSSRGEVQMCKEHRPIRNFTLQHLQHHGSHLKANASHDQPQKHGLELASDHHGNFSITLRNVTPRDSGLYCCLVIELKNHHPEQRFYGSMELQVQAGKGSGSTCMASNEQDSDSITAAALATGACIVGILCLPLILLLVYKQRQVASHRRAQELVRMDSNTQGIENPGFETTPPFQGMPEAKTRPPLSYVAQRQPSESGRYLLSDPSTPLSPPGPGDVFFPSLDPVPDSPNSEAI
Assay: flow cytometry on cells transfected with murine VISTA

binding result: binds
B1: anti-VISTA clone 13D5p IgG1 (antibody, V domains shown)
VH: QVQLQQSGAELVRPGTSVKISCKASGYTFTNYWLGWVKQRPGHGLEWIGDIYPGGGYTNYNEKFKGKATLTADTSSSTAYMQLSSLTSEDSAVYFCARGGYYYGSSWYFDVWGAGTTVTVSS
VL: DVLMTQTPLSLPVSLGDQASISCRSSQSIVHSNGNTYLEWYLQKPGQSPKLLIYKVSNRFSGVPDRFSGSGSGTDFTLKISRVEAEDLGVYYCFQGSHVPPTFGGGTKLEIKR
